{"source": "patent US20050050588", "about": "“Systemic small RNA signaling system in plants” (published 2005)", "key": {"[1]": {"target": "T1, CmPSRB1 (recombinant PSRB1) (Cucurbita maxima)", "T1 chain": "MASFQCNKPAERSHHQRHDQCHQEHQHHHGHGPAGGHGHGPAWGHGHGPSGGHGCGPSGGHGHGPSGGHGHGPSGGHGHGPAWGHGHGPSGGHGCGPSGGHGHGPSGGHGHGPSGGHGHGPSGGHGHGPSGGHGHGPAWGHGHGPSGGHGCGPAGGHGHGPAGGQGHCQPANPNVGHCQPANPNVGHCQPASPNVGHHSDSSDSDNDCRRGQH", "assay": "cell_activity", "details": "cell-to-cell movement, binding not directly measured"}, "KNOTTED1 (KN1)": {"target": "T2, KNOTTED1 (KN1) (UniProt P24345)", "T2 sequence": "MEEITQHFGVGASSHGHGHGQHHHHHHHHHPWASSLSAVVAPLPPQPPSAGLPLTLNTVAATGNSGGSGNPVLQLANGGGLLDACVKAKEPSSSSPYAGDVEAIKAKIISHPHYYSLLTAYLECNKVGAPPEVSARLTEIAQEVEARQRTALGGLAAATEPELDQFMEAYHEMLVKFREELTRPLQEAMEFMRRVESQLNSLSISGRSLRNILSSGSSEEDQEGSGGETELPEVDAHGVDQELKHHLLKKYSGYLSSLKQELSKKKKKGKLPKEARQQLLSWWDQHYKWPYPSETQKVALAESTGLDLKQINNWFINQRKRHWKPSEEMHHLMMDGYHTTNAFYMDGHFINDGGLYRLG", "assay": "cell_activity"}, "[2]": {"target": "T3, CMV movement protein (CMV-MP) (Cucumber mosaic virus) (UniProt Q83252)", "T3 sequence": "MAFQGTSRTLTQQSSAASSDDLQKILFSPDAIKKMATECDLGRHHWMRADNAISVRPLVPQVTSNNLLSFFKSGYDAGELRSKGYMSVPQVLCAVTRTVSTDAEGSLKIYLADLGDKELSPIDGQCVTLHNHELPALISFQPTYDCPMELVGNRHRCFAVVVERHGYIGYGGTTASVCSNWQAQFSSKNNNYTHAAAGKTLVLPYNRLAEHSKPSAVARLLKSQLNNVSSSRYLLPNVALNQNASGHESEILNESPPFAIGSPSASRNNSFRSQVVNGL", "assay": "cell_activity"}, "[3]": {"target": "T1, CmPSRB1 (recombinant PSRB1)", "assay": "EMSA; competition gel shift; 20 mM Hepes pH 7.0, 50 mM KCl, 1 mM EDTA, 30 C", "details": "tags: none (native, pET15b, E. coli); 3' 2 nt overhang", "procedure": "Electrophoretic mobility-shift assays were carried out as described (S12). Reactions were assembled on ice in 10 μl of binding buffer (20 mM Hepes, pH 7.0, 50 mM KCl, 1 mM EDTA, 1 mM DTT, and 5% [v/v] glycerol). An equal amount of ³²P end-labeled 25 nt ss- or dsRNA was used in assays with various concentrations of purified and desalted R-CmPSRB1. Reaction mixtures were incubated at 30° C. for 20 min and then placed on ice. Reactions were then resolved on a 5% (v/v) nondenaturing polyacrylamide gel that was pre-run for 30 min at 50 V. Electrophoresis was typically carried out at 4° C. and 200 V. The gel was then dried and autoradiographed."}}, "data": [{"molecule": "25 nt ssDNA", "values": [{"measurement": "activity (% injections with movement)", "setting": "[1]; 0 of 14", "result": 0}]}, {"molecule": "KN1 RNA (sense)", "values": [{"measurement": "activity (% injections with movement)", "setting": "KNOTTED1 (KN1); CITED includes previous studies (S13), 20 of 22, cited from earlier work", "result": 91}]}, {"molecule": "GGAAAACUACCUGUUCCAUGGCCAA", "values": [{"measurement": "activity (% injections with movement)", "setting": "[2]; cell-to-cell movement, 0 of 10", "result": 0}]}, {"molecule": "KN1 RNA (antisense)", "values": [{"measurement": "activity (% injections with movement)", "setting": "KNOTTED1 (KN1); CITED includes previous studies (S13), 2 of 10, cited from earlier work", "result": 20}]}, {"molecule": "CmRINGP RNA (1 kb)", "values": [{"measurement": "activity (% injections with movement)", "setting": "[2]; cell-to-cell movement, 10 of 10", "result": 100}, {"measurement": "activity (% injections with movement)", "setting": "KNOTTED1 (KN1); cell-to-cell movement, 0 of 12", "result": 0}, {"measurement": "activity (% injections with movement)", "setting": "[1]; 0 of 8", "result": 0}]}, {"molecule": "25 nt dsRNA (overhang type not stated)", "values": [{"measurement": "activity (% injections with movement)", "setting": "[2]; with FITC-dextran, 0 of 13", "result": 0}]}, {"molecule": "25 nt dsRNA 3' 2 nt overhang (FK221/FK224) (dsRNA) RNA 1: GGAAAACUACCUGUUCCAUGGCCAA RNA 2: GGCCAUGGAACAGGUAGUUUUCCAG", "values": [{"measurement": "Kd", "setting": "[3]", "result": 30.6, "unit": "µM"}]}]}
